Experimental data taken from patent WO2021160116A1 (dated 2021).

Biological target: T1, human FcRn-β2M complex (human FcRn extracellular region with His-tagged human β2M) (human, UniProt P55899 24-297; P61769 21-119, randomly biotinylated in the ELISA (biotin-hFcRn))
T1 construct: Purified by Ni-Sepharose and Superdex200; Used biotinylated in the ELISA and as analyte in Biacore; also called FcRn antigen; hFcRn; not shown: His tag
Experiment: ELISA, biotin-hFcRn on NeutrAvidin plate, pH 6.0

T1 sequence (P55899 24-297 limits assumed, chain 1 of 2): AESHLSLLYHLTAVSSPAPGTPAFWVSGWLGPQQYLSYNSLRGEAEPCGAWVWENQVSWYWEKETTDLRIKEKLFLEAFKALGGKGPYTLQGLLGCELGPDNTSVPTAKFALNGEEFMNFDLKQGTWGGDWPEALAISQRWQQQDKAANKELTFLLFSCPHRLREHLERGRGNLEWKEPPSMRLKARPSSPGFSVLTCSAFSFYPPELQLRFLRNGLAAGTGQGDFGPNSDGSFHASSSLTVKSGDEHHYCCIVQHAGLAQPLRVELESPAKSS
T1 sequence (P61769 21-119 limits assumed, chain 2 of 2): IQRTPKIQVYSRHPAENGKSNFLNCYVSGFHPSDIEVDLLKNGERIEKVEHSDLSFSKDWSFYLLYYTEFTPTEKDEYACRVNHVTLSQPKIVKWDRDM

B1: Argx-113 (other)
chain: DKTHTCPPCPAPELLGGPSVFLFPPKPKDTLYITREPEVTCVVVDVSHEDPEVKFNWYVDGVEVHNAKTKPREEQYNSTYRVVSVLTVLHQDWLNGKEYKCKVSNKALPAPIEKTISKAKGQPREPQVYTLPPSRDELTKNQVSLTCLVKGFYPSDIAVEWESNGQPENNYKTTPPVLDSDGSFFLYSKLTVDKSRWQQGNVFSCSVMHEALKFHYTQKSLSLSPGK
- EC50: 0.9 µg/mL
